How the values were obtained:
HA-CXCR1-RLuc (human) [1] = molecular target: HA-CXCR1-RLuc (human) (UniProt P25024)
HA-CXCR1-RLuc (human) [2] = molecular target: HA-CXCR1-RLuc (human) (UniProt P25024); remark: listed apart in the source
HA-CXCR1-RLuc (human) [3] = molecular target: HA-CXCR1-RLuc (human) (UniProt P25024); remark: listed apart in the source

Chain of HA-CXCR1-RLuc (human) (P25024 2-350): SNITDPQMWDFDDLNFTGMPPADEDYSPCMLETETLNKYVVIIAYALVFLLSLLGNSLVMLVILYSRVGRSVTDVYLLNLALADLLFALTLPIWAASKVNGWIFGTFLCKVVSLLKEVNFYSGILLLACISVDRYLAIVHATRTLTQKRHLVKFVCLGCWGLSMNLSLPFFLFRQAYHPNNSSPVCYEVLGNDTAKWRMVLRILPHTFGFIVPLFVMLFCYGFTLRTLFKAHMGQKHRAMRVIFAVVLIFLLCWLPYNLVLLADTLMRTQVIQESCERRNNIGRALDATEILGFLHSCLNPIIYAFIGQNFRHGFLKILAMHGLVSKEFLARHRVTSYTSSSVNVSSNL

internalization of endogenous CXCR1 on freshly purified human neutrophils (flow cytometry of surface receptor; 0.1-100 nM, 1 h, 37 °C); lowest concentration with a significant effect (HA-CXCR1-RLuc (human) [1])	potency to induce recruitment of β-arrestin 2-EYFP to CXCR1-RLuc (BRET dose-response, HEK-293T), against CXCL8(1-77) (fold (against CXCL8(1-77))) (HA-CXCR1-RLuc (human) [2])	Gαi-dependent reduction of forskolin-raised cAMP (AlphaScreen cAMP assay) in HEK-293T cells transfected with CXCR1 (pcDNA6 construct without RLuc); 0.1-100 nM; potency against CXCL8(1-77) (fold (against CXCL8(1-77))) (HA-CXCR1-RLuc (human) [3])	Substance
> 10 nM			CXCL8(1-77) (ligand)
	10	> 10	CXCL8(6-77) (ligand)
		> 10	[Cit5]CXCL8(1-77) (ligand)

Source: PMC6321254
